In the DeepSol protein solubility set:

Assay: soluble on expression in E. coli; label from the status in PepcDB or PDB records

Row | Sequence | soluble on expression in E. coli
1 | MSLRRVFMKQIEGGICAVRGVSAYGIKPGKMGIAVIRAEGPAAGVFTRNKVVAAPVTLSRERIETEHRLSAVIANSGNANAFTGDDGFLDAMEMASMVAENLGLDPDNVAVASTGVIGRRLDVSFIKEHLPEVLEGLGSSPECSRAAAKAIMTTDRALKESAVELDCGVRIGAIAKGSGMIEPNMGTMLCFAYTDAKVPADVLDAALKIAVDKTFNMVVVDGDTSTNDMVLFTSTCKSGVKPCLDCLDDFEEGLVCVFTDLAKKMAKDGEGATKLIEARVTGAKKYEDARLVAKTIVRSPLVKSAIFGKDPNWGRVVAAAGYSGAELEQERLTLSFSGGGEEVELVKAGEISTASDLSLLKKIMANDEIIINLDLAMGEESATAWGCDLTYDYVRINAEYTTLEHHHHHH | not soluble
2 | MSLRSLTHIAKIELPPVRRVTYVKHYSIQPANLEFNAEGTPVSRDFDDVYFSNDNGLEETRYVFLGGNQLEARFPEHPHPLFVVAESGFGTGLNFLTLWQAFDQFREAHPQAQLQRLHFISFEKFPLTRADLALAHQHWPELAPWAEQLQAQWPMPLPGCHRLLLDEGRVTLDLWFGDINELISQLDDSLNQKVDAWFLDGFAPAKNPDMWTQNLFNAMARLARPGGTLATFTSAGFVRRGLQEAGFTMQKRKGFGRKREMLCGVMEQTLPLPCSTPWFNRTGSSKREVAIIGGGIASALLSLALLRRGWQVTLYCADEAPALGASGNRQGALYPLLSKHDEALNRFFSNGFTFARRLYDSLPVKFDHDWCGVTQLGWDEKSQHKIAQMLSMDLPEELAVAVEANAVEQITGVTTNCSGITYPQGGWLCPAELTRNVLELAQQQGLQIYYQYQLQDLSRKDDCWLLTFAGDQQATHSVVVLANGHQISRFSQTSSLPVYSVAGQVSHIPTTPELAKLKQVLCYDGYLTPQNPANQHHCIGASYHRGSEETAYSEDNQQQNRQRLIDCFPHAQWAKTVDVSKKEARCGVRCATRDHLPMVGNVPDYEATLVEYASLAEQKDKAVSAPVFDDLFMFAALGSRGLCSAPLCAEILAAQMSDEPIPMDASTLAALNPNRLWVRKLLKGKAVKAGEGHHHHHH | soluble
3 | MSLRVTYRRRLSYNTTSNKKRLVKTPGGRLVVQYIKKRGQIPKCRDTGVKLHGITPARPIALRLLKRNERTVTRAYGGCLSPNAVKERITRAFLVEEQKIVNKVIKHQKD | not soluble
4 | MSLRYSKLTMLIPCALLLSACTTVTPAYKDNGTRSGPCVEGGPDNVAQQFYDYRILHRSNDITALRPYLSDKLATLLSDASRDNNHRELLTNDPFSSRTTLPDSAHVASASTIPNRDARNIPLRVDLKQGDQGWQDEVLMIQEGQCWVIDDVRYLGGSVHATAGTLRQSIENREGHHHHHH | soluble
5 | MSLSAQGSQDGRFAGQLALVTGASRGIGAATAKALAAQGAHVVLVARTAKELEKVEEEIFEAGGSATIAPVDLSEPEGIARLATAISGRWSALDVLVINAAAFPTLTPVWQIDSREFNNALTLNVLATQALLAGFDGMLKKSKDARVIGVTSSVGATPRAYWGAYGASKAAFDVLLDCYAQEVRNTSAVRVAILDPGATRTKMRARAYPGENPESVKAPEVVAERMVALLGEQFSSPHRERVNQDEGHHHHHH | soluble
6 | MSLSDFDYIQKNTPPEFPEKFKTALLPENIKKNRYSDVLANDDTRVKLNNNGYINANYIFQGRMIASQAPTIETIPDFLQMIIEQQVPIVIMLTKCKEKTRIKATPYWGYKSEGGKKVFGNYTVNTIDTLYDDVEEDKFMEDIQIRYLQIIYEDGVYSFIQIHYMGWPDFGVPLNPKDALDIVYIQYIIGTTSKFSNRNLVCVHCSAGVGRTGVYCLLSRIVEMVTYEILEKSETYSKQRSTSSSSKVREVEDRIEEILLSHPVISYEDCEVILPELVLSIRNERSKMVQTKEQYDFICETVNCFYEDALDSINQYYEVIDALTEGHHHHHH | not soluble
7 | MSLSDFHEVRFPLDVALRGSGGPVRRTEIVTLASGQEHRNSRWADSRRRYDAGLGMRTLDALHAVLSFFEERRGRMYGFRYRDRVDYRSGPPSQAPAPIDQAIGTGDGATRVFALAKTYGGGPQAYRRTIAKPVAGSVRVAVNGVELAAGAVSCDPATGRLTFAPGAVPPPGAAITAGFEFDVPVRFDTDELSIDMAAFTAGEVPRIPLIEIVLEGHHHHHH | soluble
8 | MSLSDGAVVRALVLEAPRRLVVRQYRLPRIGDDDALVRVEACGLCGTDHEQYTGELAGGFAFVPGHETVGTIAAIGPRAEQRWGVSAGDRVAVEVFQSCRQCANCRGGEYRRCVRHGLADMYGFIPVDREPGLWGGYAEYQYLAPDSMVLRVAGDLSPEVATLFNPLGAGIRWGVTIPETKPGDVVAVLGPGIRGLCAAAAAKGAGAGFVMVTGLGPRDADRLALAAQFGADLAVDVAIDDPVAALTEQTGGLADVVVDVTAKAPAAFAQAIALARPAGTVVVAGTRGVGSGAPGFSPDVVVFKELRVLGALGVDATAYRAALDLLVSGRYPFASLPRRCVRLEGAEDLLATMAGERDGVPPIHGVLTEGHHHHHH | not soluble
9 | MSLSDHKIDRIRVHRVLIPGKAVHSHGIGDVAGIHAVILEVITDTGLTGWGEASPWPAFTGTAEGTVAALYTYLRPHLIGQDPVQVERHMRDAEALVVGHPEAKAALEMALLDLTGQISGLSVCELVGGRMRDDMGLSFSVANPDFGKDLEDVAAMWAEGVRIFKIKTGFKSHGFDLMRLEKLRGIYGAEADLRIDYNQGLPAYDAVRCIRDLEAFRPTFVEQPVKMHERDALAHIAHVIETPIMADESVFGVREALHGVQIRMADIFSLKVMKSGGIRRALEVSAIARAAGIEVYGGCMFETGLAHAAGAHLMAALPELRLDCEFYMSTYYASEDILTEPFPVRGGRVHVPEGPGLGVAVDPAMLAKYAQAEALGEGHHHHHH | soluble
10 | MSLSDKDKRRLEYKELAKESKAKSKMLAASQGKGLVAKIAIGSALGNIIGNAMSKAAGGLLGFAKKAVEEKSKTNRAKLLNSAFFEKDERNTIMGTLKGMKGFERDLEKEEFLNQASVFKGTLRDLGMLNLTNLKKAVEFSAALKSSGAMSGEDAVKAVNSLLSGEGDELFDLLKKSGVGDKYIEDAKKAWQSGAEVDLESRITMLVEMFKDFKSFGITKKADTKEEIDSNLASAEQTLSNLTTTVLDPLLKFIKMVTGLSEGHHHHHH | soluble
11 | MSLSDKTMTADEAVSRLRSGMTLGIGGWGSRRKPMALVRALLRSGITDLTVVSCGGPDVGMLAAAGRIRKLVAAFVTLDSIPLEPHYRAARERGALELMEIDEAMFLWGLRAAAGRLPFLPVRAGIGSDVMRVNPGLRTITSPYVDGETFVAMPALRLDAALVHLNRADRLGNGQYLGPDPYFDDLFCEAADTAYVSCERVVDTAELTKEAAPQTLLVKRHTVTGVVEAPNGADFTSCVPDYGRDEALQRYYATTPWPEFAERFLGGGEPAYRSAVQDWRKEREGHHHHHH | soluble
12 | MSLSDLFTTIKGQVTGKNVRIVLPEGTDERIVGAAARLQKENIVKPILLGNKAEIEAKAKEIGVSVEGIAIHEPATDPLFDELVAAFVERRKGKATEEAARKMLVDPNYFGTMLVYTGKAEGLVSGAAHSTGDTVRPALQIIKTKPGVSKVAGAMIMVRGEERYLFSDVAINIAPVAADLAENAIVSAETAEIFGIDPRVAMLSFSTKGSAKSDETEKVVEATALAKEKAPELTLDGEFQFDAAFVPTVAEKKAPGSVIKGDANVFIFPSLEAGNIGYKIAQRLGNFEAVGPILQGLNAPVNDLSRGCNTDDVYNLTLITAAQAVNKEGHHHHHH | soluble
13 | MSLSEAGHKFLAKLGKKRLRPGGKRATDWLIAEGGFSKEKRILEVACNRGTTAIELAQRFGCKITAVDMDAQALEVAKKSAGTAGVAHLISFERANAMKLPYQDASFDIVINEAMLTMQADQAKKKCVMEYLRVLKPGGLLLTHDVLLKEAKESIRQELSQAIHVNVGPLTQDGWEQVMIESGYCDVKALTGEMTLMKLSGMIYDEGLLGTLKICVNACKKENRKQFLTMYKMFAKNKQKLGFIAMASYKSSKREGHHHHHH | not soluble
14 | MSLSENPIASVRLLRLQREEASLQQYRDNIGALKSQLTKNETLLDGISANLRDARDLLVAAANQPPTDDLKAMASPLVSLRDSILYAANTKDSEGRYMFSGSAVNNAAIVVDDTQPAGSRYRYNGNGDRQRVTVGEGVTEASNVTLESMAPLLNQLDKAIATLQSPTLDSKDPAVGATIREVMGGVDTALDRVGGTISELGGAQNVLKTLDGNHDSLSLANQESIIELGSLDYGTAYIAMNNLSMALQTSQKAYGKVSQLTLFDVIEGHHHHHH | soluble
15 | MSLSEQHIDPTRLRMDELVVALTDRETELAAAEGRIRELEREVSELRRSLNSPSQEAELERLRLLAGTTAVTGPGVVVTLSETPEAVTAKNRVADEDIWRVVNELYTAGAEAIAVGGVRLTSVSGIRNVGERILVGETMIASPVEIHAIGDPAVLDASLKLRGGVIDLLARWGIKVTVVKSDSLTLPPLKTQPAFRYAKPAESAGSEGHHHHHH | soluble
16 | MSLSGNYLPRNTLVESLGHAMLKLSGWKIEGQLPALDKFVVIGAHHTSNWDFVAFLAAKFVLRLNARWFGKHTLFNGPLGGLMRRWGGIPIQRHLKLNTVDQAIQAFREHREFMLIIAPEGTRKKVDRWRMGFYHIARGAGVPVVPAALDYENRRIVIGEPFWPTGNEDADLCSLIGFYRPFIPKKPHYAFLGDEGHHHHHH | soluble
17 | MSLSGSDYCFSTLGCSELSLHETADLTERHGIANVELRALSGTIDLIAALTAEFGTPARFAAFLSERNLRVAALNTSMRLFGSDSLSEIEPFIDWAEAANIAYLRIFDGGKKIGPEDLDRSAALLDNWQAVRQTRGLNVDLMIETHDALSDFEQLLTFIEQVPAARILWDTHHTWAKGSNLKMVWRQIERNVVHLHVKDSVMDSDRERRYVLPGQGEFPISELLSLILPNERQIPLSLEWERHWHPQLPPLADALKAAHSWWRQGVSEGHHHHHH | soluble
18 | MSLSHYDRMKRSSIAPYRRSNDSSNRIDKKTGKKGHGLMSKLKDLVSFGWAQEHHKDNDFSARDTGRERTNVSKGSYAAVPGGFFSSDQSSFILRERSRIMNESTMHSEADTSNAKLADFFAKKGNEPLSEIEMEGVLALMQKSRGVADESSFLGNSSRLLGDISNANASQVLRTGNISTSSALNVPNFKPSTDESRNINAKEVENSTIVSTPLKRKNFDYSSIRSPYRTVIYRFDDSNKKKISSVFDKPESSSQEVDETPKPSNSKPLSNTASALVSLLSDKDAAKESIKPMANPYTSHLTALRKSREDLPSINDKITVPKRRQRSETEDKEEAKITSSNGEAQEDTNIPEGIASRKNEEAQDSFTKYKPMRSSSLRDSVSLAHTESNNEKQMNSPKFVPAPLDKNETKETAKSDLTLTSSDKQSESKPSFSFPVNSTTKSTFMGTKKESTSPAVNSEGHHHHHH | soluble
19 | MSLSIAISNAIIVTQNDNRDVYRGNVKIDGNKIQYVGKDEVDGDILIDGTNKVLMPGLINTHAHVGMSASKGLFDDVDLDSFLKKTFEYDSDRTSTGIFNSAKLGMYEMIGNGITAFVDLYYSEDIIAKAAEEIGIRAFLSWVTLDKELTTQIGDPVENAENFIRNHVGNKYVVPSVGVQGIYVANDDTFRRAMDLAEKYGTILHMHLSETRKEVYDAVKKLGERPIEHLHNIGILNKRVLAAHCVWATYHEVRLLSKDGVNVSWNSISNFKLGTGGIPPIPEMMRENVNVTIGTDSNGSNNSLDMFQAMKFSAISVKNYRWDASLMKAQEILDMATRNAARALQLNAGSIEVGKLADVVLLDATIPSMIPTNEANAVSNIVYSSSPQNVDTVIIDGEIKKINGKILGFHSNKFTNSEFKEGHHHHHH | not soluble
